Values quoted from earlier work, collected in patent US20200069786A1, “COMPOSITION AND PROCESS FOR PREPARING VACCINE” (TREOS BIO ZRT., priority 2018, published 2020).
Read-outs that look alike come from different tables or passages of the source.

System: TSA

B1: SART3 (protein, UniProt Q15020 2-963, looked up)
Spliceosome associated factor …: ATAAETSASEPEAESKAGPKADGEEDEVKAARTRRKVLSRAVAAATYKTMGPAWDQQEEGVSESDGDEYAMASSAESSPGEYEWEYDEEEEKNQLEIERLEEQLSINVYDYNCHVDLIRLLRLEGELTKVRMARQKMSEIFPLTEELWLEWLHDEISMAQDGLDREHVYDLFEKAVKDYICPNIWLEYGQYSVGGIGQKGGLEKVRSVFERALSSVGLHMTKGLALWEAYREFESAIVEAARLEKVHSLFRRQLAIPLYDMEATFAEYEEWSEDPIPESVIQNYNKALQQLEKYKPYEEALLQAEAPRLAEYQAYIDFEMKIGDPARIQLIFERALVENCLVPDLWIRYSQYLDRQLKVKDLVLSVHNRAIRNCPWTVALWSRYLLAMERHGVDHQVISVTFEKALNAGFIQATDYVEIWQAYLDYLRRRVDFKQDSSKELEELRAAFTRALEYLKQEVEERFNESGDPSCVIMQNWARIEARLCNNMQKARELWDSIMTRGNAKYANMWLEYYNLERAHGDTQHCRKALHRAVQCTSDYPEHVCEVLLTMERTEGSLEDWDIAVQKTETRLARVNEQRMKAAEKEAALVQQEEEKAEQRKRARAEKKALKKKKKIRGPEKRGADEDDEKEWGDDEEEQPSKRRRVENSIPAAGETQNVEVAAGPAGKCAAVDVEPPSKQKEKAASLKRDMPKVLHDSSKDSITVFVSNLPYSMQEPDTKLRPLFEACGEVVQIRPIFSNRGDFRGYCYVEFKEEKSALQALEMDRKSVEGRPMFVSPCVDKSKNPDFKVFRYSTSLEKHKLFISGLPFSCTKEELEEICKAHGTVKDLRLVTNRAGKPKGLAYVEYENESQASQAVMKMDGMTIKENIIKVAISNPPQRKVPEKPETRKAPGGPMLLPQTYGARGKGRTQLSLLPRALQRPSAAAPQAENGPAAAPAVAAPAATEAPKMSNADFAKLFLRK
- Expression Rate (ER) % (TSA expression rate in PEDIATRIC): 73%

B2: TTK (protein, UniProt P33981 1-857, looked up)
Dual specificity protein …: MESEDLSGRELTIDSIMNKVRDIKNKFKNEDLTDELSLNKISADTTDNSGTVNQIMMMANNPEDWLSLLLKLEKNSVPLSDALLNKLIGRYSQAIEALPPDKYGQNESFARIQVRFAELKAIQEPDDARDYFQMARANCKKFAFVHISFAQFELSQGNVKKSKQLLQKAVERGAVPLEMLEIALRNLNLQKKQLLSEEEKKNLSASTVLTAQESFSGSLGHLQNRNNSCDSRGQTTKARFLYGENMPPQDAEIGYRNSLRQTNKTKQSCPFGRVPVNLLNSPDCDVKTDDSVVPCFMKRQTSRSECRDLVVPGSKPSGNDSCELRNLKSVQNSHFKEPLVSDEKSSELIITDSITLKNKTESSLLAKLEETKEYQEPEVPESNQKQWQSKRKSECINQNPAASSNHWQIPELARKVNTEQKHTTFEQPVFSVSKQSPPISTSKWFDPKSICKTPSSNTLDDYMSCFRTPVVKNDFPPACQLSTPYGQPACFQQQQHQILATPLQNLQVLASSSANECISVKGRIYSILKQIGSGGSSKVFQVLNEKKQIYAIKYVNLEEADNQTLDSYRNEIAYLNKLQQHSDKIIRLYDYEITDQYIYMVMECGNIDLNSWLKKKKSIDPWERKSYWKNMLEAVHTIHQHGIVHSDLKPANFLIVDGMLKLIDFGIANQMQPDTTSVVKDSQVGTVNYMPPEAIKDMSSSRENGKSKSKISPKSDVWSLGCILYYMTYGKTPFQQIINQISKLHAIIDPNHEIEFPDIPEKDLQDVLKCCLKRDPKQRISIPELLAHPYVQIQTHPVNQMAKGTTEEMKYVLGQLVGLNSPNSILKAAKTLYEHYSGGESHNSSSSKTFEKKRGKK
- Expression Rate (ER) % (TSA expression rate in Esophageal): 97%

B3: PAGE1 (protein, UniProt O75459 1-146, looked up)
P antigen family member 1: MGFLRRLIYRRRPMIYVESSEESSDEQPDEVESPTQSQDSTPAEEREDEGASAAQGQEPEADSQELVQPKTGCELGDGPDTKRVCLRNEEQMKLPAEGPEPEADSQEQVHPKTGCERGDGPDVQELGLPNPEEVKTPEEDEGQSQP
- Expression Rate (ER) % (TSA expression rate in CRC): 0%

B4: TEX101 (protein, UniProt Q9BY14 26-222, looked up)
Testis-expressed protein 101: LYCQKGLSMTVEADPANMFNWTTEEVETCDKGALCQETILIIKAGTETAILATKGCIPEGEEAITIVQHSSPPGLIVTSYSNYCEDSFCNDKDSLSQFWEFSETTASTVSTTLHCPTCVALGTCFSAPSLPCPNGTTRCYQGKLEITGGGIESSVEVKGCTAMIGCRLMSGILAVGPMFVREACPHQLLTQPRKTEN
- TSA Expression Rate (ER) (BREAST): 0%

B5: MCAK (protein, UniProt Q99661 2-725, looked up)
Kinesin-like protein KIF2C: AMDSSLQARLFPGLAIKIQRSNGLIHSANVRTVNLEKSCVSVEWAEGGATKGKEIDFDDVAAINPELLQLLPLHPKDNLPLQENVTIQKQKRRSVNSKIPAPKESLRSRSTRMSTVSELRITAQENDMEVELPAAANSRKQFSVPPAPTRPSCPAVAEIPLRMVSEEMEEQVHSIRGSSSANPVNSVRRKSCLVKEVEKMKNKREEKKAQNSEMRMKRAQEYDSSFPNWEFARMIKEFRATLECHPLTMTDPIEEHRICVCVRKRPLNKQELAKKEIDVISIPSKCLLLVHEPKLKVDLTKYLENQAFCFDFAFDETASNEVVYRFTARPLVQTIFEGGKATCFAYGQTGSGKTHTMGGDLSGKAQNASKGIYAMASRDVFLLKNQPCYRKLGLEVYVTFFEIYNGKLFDLLNKKAKLRVLEDGKQQVQVVGLQEHLVNSADDVIKMIDMGSACRTSGQTFANSNSSRSHACFQIILRAKGRMHGKFSLVDLAGNERGADTSSADRQTRMEGAEINKSLLALKECIRALGQNKAHTPFRESKLTQVLRDSFIGENSRTCMIATISPGISSCEYTLNTLRYADRVKELSPHSGPSGEQLIQMETEEMEACSNGALIPGNLSKEEEELSSQMSSFNEAMTQIRELEEKAMEELKEIIQQGPDWLELSEMTEQPDYDLETFVNKAESALAQQAKHFSALRDVIKALRLAMQLEEQASRQISSKKRPQ
- Expression Rate (ER) % (TSA expression rate in CRC): 100%
